# Experimental data as given in the DeepSol protein solubility set.
# Assay: soluble on expression in E. coli; label from the status in PepcDB or PDB records
row,Sequence,soluble on expression in E. coli
1,LMPLRDIVIFPTMVQPLFVGRRFSIRAIEEANKKDKLIFLVLQKDKDVEEPKEEDIYKVGVVAYILRTVPIEDARVKVLVQGLKRGVIKKLEWKEDHYVAQVDVIEERDIPPESQTIEDKALIKAVKESIDKLVSLGKQIIPDLVVLIKELEEPGKLADMVASILDIKSSQAQEILETFDPRERLKK,soluble
2,LNIHVTIREATEGDLEQMVHMLADDVLGRKRERYEKPLPVSYVRAFKEIKKDKNNELIVACNGEEIVGMLQVTFTPYLTYQGSWRATIEGVRTHSAARGQGIGSQLVCWAIERAKERGCHLIQLTTDKQRPDALRFYEQLGFKASHEGLKMHF,soluble
3,LRANKPVFKNAGATLHDIGDGIVNLEFHTKMNTLGGEVVDAINRSIGIAEKDFQGIVIGNDGANFSAGANLALVLMYAIEQEYDEIDFMIRAFQNTMMRARYSSIPVVVAPHNLTLGGGCEMTLHADHVQAFAETYIGLVEFGVGLIPAGGGTKEFTLRVSDSFEDGDIQVNNLKNMYMHIATAKVATSAEEARSMGILRKSDGITLNRSRLIADAKAAAISLAEAG,not soluble
4,LRSVFVSGFPRGVDSAQLSEYFLAFGPVASVVMDKDKGVFAIVEMGDVGAREAVLSQSQHSLGGHRLRVRPREQKEFQSPASKSPKG,soluble
5,LRTGIDNVLRAKTGGLIVLGYNENMKGIVDGGFYLDCPFSPASLYELAKMDGAIILNEDGTKILYANTQLNPDNAISSNETGIRHRTAERVAKQTGNLVISISQRRNVITLYHGHL,soluble
6,LSGYAQAGFSSLWLPTASSEKENYNTFDVKRITLRANVAITDKWSVTFIPDFAKRYTNLELYTSFRTCSGFGIRLGQFKTAFSIENQLSPTTIETISCGSMATNFLAAGNGSDPLMGAQSGRDVGLEIYGDLFNDILGYRLGVLNGQGINTLDGSKHKTLEGSLTLRPIECLSFTGSFMSGKTAALNDAPIKINSKQIMAGDLYDRSRWSVGGMFRSKYLDLRSEYLEGKDDDMISKGFYVTGVGRLFKNLDIIGSYDFMDLYERQQVHNITAGLQYWFFPKCRLQAQYVLSNPKGEYNNTHALLTQVQVAF,not soluble
7,LTPLAQMAEGMERQDVSIDKWTLHAKQNLSLTEKEFYQKVQRLKQEYRQYDWVIAREDKMIKAIGTYTDKKNRTSFRLQLVTTLKKHNPTSYLLYEQMSLETPDSWNDTYEQFERETLGIFQEKVVIFTCLNGHLDDNMNIVLQKKANQLLNEFQARSVEHVVEPNFVSISAFTDEWEEYIMTSKHKMNLQIALRSAGMGGKHTVTVGTPIVTTEY,soluble
8,LTRFSAGYGSDSMLEASADIGRRFGPDDSVGIRINAAQRGGETAIDGERTRTTVFALGLDWRGERARLSADIGYQDNRLKRARPNVTLAGDAAKVPGAPDAGSNYAQPWSYSNERDVFGTLRGEYDFNDRITGWAAYGMRQSKEENSLANLNGVNGAGQGKFYRFDNAREDTVNTGEIGLRAKARTGPVGHELVASASYFDLEKKNAYVMDFFNQFDTSIYDPVSYAKPAISSTAFRGNDMDDPAKQGVIRLASYALGDTMSFFDDKVLLTAGIRHQRLYQRDYSYDTGIGGTPYEQSHNSPAAGLVVRVTPQVSLYANYIEALSAGDTAPQTANGLPVVNHGESLAPYVSKQKEVGVKFEHDGLGGGLALFSTDKPRGFVGDDQVFRASGKDRHRGVELTTYGELTRSVRVLGGLTWLDAKQLSTGNAATDGKRVIGVPRFQANLGVEWDIPGVQGLTVDGRVVYTGSSYADAANTLEVPGWTRLDAGLRYMTDIGGHLVTWRARVENIANRDYWSSVGGYPGNGYLVLGGPRTFTLSASMEF,not soluble
9,LYQHMQQQIQVQAAQNIALQDQLQQALIVPNQRIAQLEQQQLSDAKTFQELSKLATDQSQLQDRLNKLAQRSPTHWMASEAEYLVNMAGRKLWLEKDPRTATDLLKSADETIAAMNNPALLPIRKALAKDIAATTNLKSADIEGSVLALDALIGQLDKLPLNRADGEASTAEDTTISGDLNDWQSNLSKTWKALTQDFITIRHRTADVPALLAPDQQWYLVENIRHKLLQSQLALYRYDRAAYHQSLMMARQWIQSYFDVQAHQTSEAIAAIDKLATLELDPITLKAFEAKPLLLQLTSYGELTSLEEPQL,not soluble
10,LYRHFAHRPDDLYRLEWREYETLLARIFQSQGFDVELGPGRGDEGVDIRLIQRDPIGDIVTLVQAKKYGAGNKIDQTQVAALYGIQQSEDANFSMFVTTSAYAPVAKRFSAREKV,not soluble
11,LYVFDMDETLINADCAMIWNAFLVEKGIATQPNFIEEDQRLMALYAEGKMDMEDYLEFCMAPLADMPIAHVLMLVEECVEHHILPKQFEQSKTLIAQLDRDDIDMVIISASVTFLVEAVGRRLGIPVALGIDLVEKHGSYSAEIAGVPSYREGKVIRLKAWLDAQPESYSEVHFYTDSINDLPLCEYADYAYLVNPCPQLKARAD,not soluble
12,MAAAGTLERSFVELSGAERERPRHFREFTVCSIGTANAVAGAVKYSESAGGFYYVESGKLFSVTRNRFIHWKTSGDTLELMEESLDINLLNNAIRLKFQNCSVLPGGVYVSETQNRVIILMLTNQTVHRLLLPHPSRMYRSVSWLSAISFISQITLGVTNVVLERCLLELKEIWILVIPHQAYFDSYRLKLEHHHHHH,not soluble
13,MAAAREPELPQEAPATEPAPPPACRFFLEGRCRFGARCRQPHPGAPAPPGREAQPEAGAKKPPLRTAADVIQRIRWDPRLDPADFSVGYVDRFLGVREEPFSAFCWDQPLAALGPGVLAVPQHRVRFFRFHGRLVWDRASRTDLVFGSGSAAGRGPTILDAPNTEGAHGAEGAEWTLAGTGQEAQAAPKRGSTRPLCTGHQEPGVEEPGELEAAQERALGTAADLGTLAPRGRLAGVTEEALKPTAATRTTLLGGKEAQALGVPGGSAETTEAEWGPAAWPEDKRARLSVAAPCQPRPTHFVALMVTEPGLQAEVTKAQEYLVHVAPHCANFLVPSQNLHLTLALLRLAGAGEEAAAIGALRRALLAPGLNAPPRLSFRKLVLLGPHVLCAPPSPTLESMAQVLSQRLEAEGLSTLQSPGQLHPHLTVAKVPHGSQVHLPKLEFTLSQEVGCQPLQTLWLCRIGRTGGPFQPLAEIRLE,soluble
14,MAACRALKAVLVDLSGTLHIEDAAVPGAQEALKRLRGASVIIRFVTNTTKESKQDLLERLRKLEFDISEDEIFTSLTAARSLLERKQVRPMLLVDDRALPDFKGIQTSDPNAVVMGLAPEHFHYQILNQAFRLLLDGAPLIAIHKARYYKRKDGLALGPGPFVTALEYATDTKATVVGKPEKTFFLEALRGTGCEPEEAVMIGDDCRDDVGGAQDVGMLGILVKTGKYRASDEEKINPPPYLTCESFPHAVDHILQHLLAENLYFQ,soluble
15,MAAFAVDPQAPTLGSEPMMLGSPTSPKTGANAQFLPGFLMGDLPAPVTPQPRSISGPSVGVMEMRSPLLAGGSPPQPVVPAHKDKSGAPPVRSIYDDISSPGLGSTPLTSRRQANISLLQSPLVGATPPVPGQSMFSPANIGQPRKTTLSPAQLDPFYTQGDSLTSEDHLDDTWVTVFGFPQASASYILLQFAQYGNILKHVMSNTGNWMHIRYQSKLQARKALSKDGRIFGESIMIGVKPCIDKNVMENSDRGVLSSPSLAFTTPIRTLGTPTQSGSTPRVSTMRPLATAYKASTSDYQVISDRQTPKKDESLVSRAMEYMFGW,soluble
16,MAAFNDTLRAEIEEKKEDSVSERTTRNGKILNAKDEPEFGMNITPTTLFFKYPIGGIGYSFFTVTNTTSEKQAFKVKSSDNTWFRSKPSVGFIKSGEKVHVRVTFNSPDAGKERPERGSDNKNHVAIFHVAAGDAKTYKEAFAKKAADGVHHFFARHLAEPGAQVDKEADEKAPNGA,soluble
17,MAAIHINHDVFNKYHTNGKLRLTTGYVQEAIENNGYPGHDGIVQVLKGKVEQGEQLGHAFTFRIRISDGVFQYNALMSADIDDQIKREVEHLVEGTIIALTKFEIYDQGEGAKNCFLIKGYKILSRYHQVLTSPEVKPRSHSGKPDEHKGYRPNIIIEDVWPEAEGMAADYQENMANPPAAKAPKREFGEEASYNRAAAPEATRARAVPPPARRTASNTERGVMPIAMVTPYVSNFKIHGMVSRKEEIRTFPAKNTKVFNFEITDSNGDTIRCTAFNEVAESLYTTITENLSYYLSGGSVKQANKKFNNTGHDYEITLRSDSIIEAGGELLAAPKLILKRVKLGEIAGYAGQLIDVLVVVEKMDPEATEFTSKAGKSLIKREMELIDESGALVRLTLWGDEATKALVDDYVQKVIAFKGVIPREFNGGFSLGTGSATRIISVPEIAGVSELYDWYANVKPTTEVKMMSQAAGGSNEAPRTIAGLQEMQFGKDSDKGDYATVKAMITRVNPTNALYRGCASEGCQKKLVGENGDYRCEKCNKNMNKFKWLYMMQFELSDETGQVYVTAFGDSAAKIVGKSAAELGELHDESPDEYNAIFERLQFVPKMWRLRCKMDSYNEEVRQKMTVYGVDDVNQDKYIENLKQMIEQMQQMSDY,soluble
18,MAAKPGIPKGTRDFSPVEMAKRNYIFNTIRDVFHLFGYQQIETPSMENLSTLMGKYGDEGDKLLFKIQNSGDYFNGITDEELLSRNAVKLASKFCEKGLRYDLTVPFARYVVMHRDEISFPFKRYQIQPVWRADRPQKGRYREFYQCDADVVGSNSLLNEVELVQMIDRVFGKFGVRVSIKINNRKILTGIAEIIGEADKIVDITVAIDKLDKIGLENVNAELASKGIPQEAIDKLQPIILLSGSNEEKLETLKTVLATSEAGLKGVEESEFILKTVSALGVKSEVELDLTLARGLNYYTGAIFEVKALDVQIGSISGGGRYDNLTGVFGMDGMSGVGISFGADRIFDVLNQLDLYPKEAVNGTELLFVNFGDKEAAYCLPILTKVREAGVRAEIYPDASKMKKQMGYANDKQIPFVAIVGENEMNEGKLTLKNMTTGEQSLVTPDELLAVVKA,not soluble
19,MAAQRLGKRVLSKLQSPSRARGPGGSPGGLQKRHARVTVKYDRRELQRRLDVEKWIDGRLEELYRGMEADMPDEINIDELLELESEEERSRKIQGLLKSCGKPVEDFIQELLAKLQGLHRQPGLRQPSPSHDGSLSPLQDRARTAHP,soluble
20,MAARNAGTARPGGPNRTCQFKLVLLGESAVGKSSLVLRFVKGQFHEYQESTIGAAFLTQTVCLDDATIKFEIWDTAGQERYHSLAPMYYRGAQAAIVVYDITNQESFQKAKNWVKELQRQASPNIVMALAGNKADVANKRTVEYEEANAYAEDNALLFMETSAKTSMNVNDIFMAIAKKLPIGPAQGEPTGTVDMNQPQQQQKGSCCK,not soluble
21,MAARQQLALLSVSEKAGLVEFARSLNALGLGLIASGGTATALRDAGLPVRDVSDLTGFPEMLGGRVKTLHPAVHAGILARNIPEDNADMNKQDFSLVRVVVCNLYPFVKTVSSPGVTVPEAVEKIDIGGVALLRAAAKNHARVTVVCDPADYSSVAKEMAASKDKDTSVETRRHLALKAFTHTAQYDAAISDYFRKEYSKGVSQLPLRYGMNPHQSPAQLYTTRPKLPLTVVNGSPGFINLCDALNAWQLVKELKQALGIPAAASFKHVSPAGAAVGIPLSEEEAQVCMVHDLHKTLTPLASAYARSRGADRMSSFGDFIALSDICDVPTAKIISREVSDGVVAPGYEEEALKILSKKKNGGYCVLQMDPNYEPDDNEIRTLYGLQLMQKRNNAVIDRSLFKNIVTKNKTLPESAVRDLIVASIAVKYTQSNSVCYAKDGQVIGIGAGQQSRIHCTRLAGDKANSWWLRHHPRVLSMKFKAGVKRAEVSNAIDQYVTGTIGEDEDLVKWQAMFEEVPAQLTEAEKKQWIAKLTAVSLSSDAFFPFRDNVDRAKRIGVQFIVAPSGSAADEVVIEACNELGITLIHTNLRLFHH,soluble
22,MAASLWMGDLEPYMDENFISRAFATMGETVMSVKIIRNRLTGIPAGYCFVEFADLATAEKCLHKINGKPLPGATPAKRFKLNYATY,soluble
